Measurements from the supplement of paper PMC9170038.

Test system: K4 kissing-loop RNA reporter
Experiment: apparent KD of K4 kissing-loop reporter; higher = weaker reporter binding
Conditions: Eterna round: R107
Description: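 RNA-MaP round R107: designed RNA switches with theophylline, tryptophan, arginine or FMN aptamers are transcribed on-chip within common flanks. They are titrated with a labelled K4 kissing-loop RNA reporter in RNA-MaP buffer (100 mM Tris pH 7.5, 80 mM KCl, 4 mM MgCl2), without ligand or with the indicated ligand. Median apparent KD per design.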

[1] = input ligand: theophylline 20 uM
[2] = input ligand: tryptophan 2.4 mM
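Note: bound reporter read as fluorescence of individual clusters on recovered sequencing chips by microscopy, with normalized cluster intensities fitted with a binding model.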

Sequence	apparent KD of K4 kissing-loop reporter (input ligand: FMN 200 uM) [nM]	apparent KD of K4 kissing-loop reporter (input ligand: arginine 13.2 mM) [nM]	apparent KD of K4 kissing-loop reporter (input ligand: none) [nM]	apparent KD of K4 kissing-loop reporter [1] [nM]	apparent KD of K4 kissing-loop reporter [2] [nM]
GACGGGCAGUGAUGUUGCCGGUCUCUUGGACGAGGACCGGUACGGCCGCCACUCGAUCUGAUGCGAGAAUUGUAUCUUUUAAUAA [Tegesosoat]	250	177	242	346	347
CGCAAGCAGCCAGUGAUGUUGGCCGCCUUGCGAGGACCGGUACGGCCGCCACUCGAAGGCGGCUACUGGUAAACCGCCUAACGGA [Onzaenla]	93.3	83.6	92.9	85.4	96.4
UGAUACCAGACUGAUACCAGCCACAGAGUCAAAGACUCUGAUAAAGGAACCAGUGAUGUUGGCCCUUGGCAGCAGUCUGGUAUCU [TheoBX 24 #SwitchBubble #StaticStem]	131	113	118	107	156
AAAAUAAAUCAGUGAUGUUGGUGUCCAGAUACCAGCGACGAAAGUCGCCCUUGGCAGCUGUGGACGUACAAAAUAAGUACGUCCU [MatMod 22 - Jieux - Same State - Theophylline A]	610	316	611	335	465
UGUCGAGUGAUGUUCGAUUUGGUGCAUGCAGAGGAUAUAGGGUGGGCUAGAAGGCUGAAAAGUGCUUCGAGUGAUGUUCGAAGUU [Exclusion FMN A GF10]	117	113	100	100	97.3
CGGCGCGGCGCGGCCGCCACUGCGCCUGGGUGCUCGCCGAGUGAUGUUCGUCGGCGGUUGGGUGGCAGGACCGGGUGCCGGCCCG [BDazzled - #18 SS Tryptophan B]	930	703	827	1030	768
UCGGCAAAGUCGGCCGCCACUCCGGGCCCUAUAAAUGGGCGCAGUGAUGUUGCGGCUAGGCCUCUGAGGACCGGGACUUUGUAGA [Gebive]	114	91.7	112	146	204
AAUAAAAUCACGGCCGCCACUGAUACUAGUAUUAGCAGUGAUGUUGCUAUGUAUAAUUUAUUAAAUAGGACCGGGUGAAUAUUUA [#25 K4 Tryptophan B Exclusion]	298	220	267	350	256
UAGUCCUAGUGAUGGUUAUCACGUGGUGGGCGAGGACCGGUACGGCCGCCACUCGACUUUGCAGUGAUGUUGCAAACCGGACAAU [Exclusion - Tryptophan A (Freestyle 18)]	228	278	237	287	237
AAGUCUCGUUAAUUCGUGGUUUCGAUCGAUACCAGUAGCGAGAGUUACCCUUGGCAGCGAAAUGAGUGAUGUUCAUGAAAGAAGA [KL-XTheoA10]	65.1	101	64.6	107	60
UGUCAUUGGUCUGAUACCAGUUGAUGACGAAUACGUCAACUGGAGUGAUGUUCCUAAAACAACCCUUGGCAGCAGACCGAUGACU [TheoBS 1 #SwitchBubble #StaticStem]	788	511	658	709	564
AGAGUUAUAUGAGGAUAUGAGAUAGUUAAUGAGUGAGUUAUAGUGUAGUUUGGUUAGUGAUGUUAUUUAGAAGGCGUGAGUGAUG [reefmullin]	133	76.5	115	100	83.1
AUCUGGUUGGGCGAUACCAGUUUGGCAUAGUGAUGUUAUGCAACGCUCAGUGCAAGGCCAAACCCUUGGCAGCGCACAUCCUUUC [theeternabot_exclusion_KL_Theo_B_3]	128	99.1	105	117	105
GGCAGAGUGAUGUUCGCCCUUUACCUUGAUACCAGUUCAUCUCAAAACCCUUGGCAGCAAGUGUGUAAGAGCGGUAUUGGUCAAU [theeternabot_exclusion_KL_Theo_A_1]	356	306	388	359	339
GUAUCGCUAGGAGGAUAUUUCAAUCCGCCUAUAAUAGGUGGUACGGAGUGAUGUUCCGAUUUACGGAAAGAAGGCCUAGUGAUAC [FMN B 16]	142	265	297	283	278
GGUGACGGCCAGGAGUGAUGUAUAGAAUAGCGAGGACCGGUACGGCCGCCACUCGUGAAGAAAAGGGAGUGAUGUUCCGUAAUGU [Kazoo]	87.8	122	75.3	126	49.5

Sequence	apparent KD of K4 kissing-loop reporter (input ligand: FMN 200 uM) [nM]	apparent KD of K4 kissing-loop reporter (input ligand: arginine 13.2 mM) [nM]	apparent KD of K4 kissing-loop reporter (input ligand: none) [nM]	apparent KD of K4 kissing-loop reporter [1] [nM]	apparent KD of K4 kissing-loop reporter [2] [nM]
GGGAGGAGUGGUGUUGAUUAAGAAGCGGAAGGAGCGCCGAAGAAGGCAGGUAGGUCGCCGAAAUAUAGUGAUGUUAUAUAAAGGG [ExArg.C]	340	198	281	262	208
CCAUCGCUAUUCGAUACCAGUCAUAAAAUCUUUGGUUUAAUAAAGGAGUGAUGUUCCCAAGACCCUUGGCAGCGAAUAGUGAUGG [Theophylline B K4 8]	186	185	176	197	190
CAUACGCAUGGAGGAUAUGAGAUUUUUCAUAUUACUUUUUAUUCUCAGUGAUGUUGGGAUUUGUAAUCAGAAGGCCAUGUGUAUG [#10 K4 FMN B Exclusion]	174	93.2	99.8	110	98.1
AGUGUUAGGUUAGAUACCAGCCGUCUGUGGAUAAUCCUCAGACCGCCAGUGAUGUUGGCAGGCCCUUGGCAGCUAACAGGACAGA [Mavebius]	275	268	272	155	237
AAUUUAUUAUCUGAUACCAGACUUUUUCUUGUUUAUAAGUCAAGUGAUGUUUGACUUUUAGUCCCUUGGCAGCAGUAUUUUUUAA [JR_Nu_SSTheophyB_Sub026]	125	128	123	113	114
GGAGGGAUCUCGGCCGCCACUCAUAAGAAAUGAACCUAAGAAAUAUAGUGAUGUUAUAUAAAGAAGAGGACCGGGAGAAAGGAGG [ExTryptoB.A]	148	171	197	555	171
AGGUCCGAGCCUGUAAAGGCUCGGACCUGUUAGGAUAUGACGUUAUUCAGAAGGGAUGGGUGGAGUGAUGUUCCACCCGCAAGGG [#2 Same State - FMN A Attempt #5 (HarryS)]	107	103	111	116	104
UUAGCCCUAUAGGGCAAGACCUAUACUGAUACCAGAGGGUAUACCCUCCCUUGGCAGCGGAUCGAGUGAUGUUCGUAAGGUCAUU [AK4.4 SS Theophylline A]	741	730	844	776	572
AGUGAUGUGGGAAGGAGCGGUAUAAGAAUUCAGUGAUGUUGAAGUGUUGCAGAAAUAAAAGGCCAGGUAGGUCGCCUAGAUGUUA [KL-XARG B29]	347	384	454	519	243
UGUCAUUGGUCGGCCGCCACUUUAUAUGGAGUGAUGUUUUGUAGAUUGUGUUGAAAGGUGUGGUGAAGGACCGGGACCGAUGACU [FiskerMod 25 - Jieux - Same State - Tryptophan B]	803	617	1010	1010	967
UUAUACAACUGAAGGAGCGCCAGUGAUGUUGGCGUGACGACUGCUUCCUUCGCCGAGUCCUGGCAGGUAGGUCGCAGUUGCUGAA [Oratgere]	82.6	97.2	113	99	94.8
UAACCUGUAAACGAUACCAGUUGCAUGGAAACUUGGUACUAGCUAGUGAUGUUAGCAAGCAACCCUUGGCAGCGUCGCCUGACAG [theeternabot_sameState_KL_Theo_B_17]	308	427	395	487	309
CAAUGAGUAUAAGAUGAUAUCAUCACAGAAGGAGCGAGUGAUAACUCAGGUAGGUCGCUGAAUUUAUCGAGUGAUGUUCGAUAGA [whbob_SS_Arginine_A_sa118]	207	158	199	175	170
AUCGAUAUCAGAGGAUAUGCUUAAUAGAUUUAUUAUUAUCUAUUAUGCAGUGAUGUUGCAUAUUUUGCAGAAGGCUGAUUUCGAA [JR_SSFMNB_Sub019]	124	433	447	429	403
UACGCUGCCUGAGGAUAUAGAAACGAGUGAUGUUCGUGGAUAAGAGCCAGUGAUGUUGGGUUAUUUCUAGAAGGCAGGUAAAGUA [Exclusion FMN B GF6]	106	89.1	102	95.8	100
ACACGCAACUAUAGACCAGUGAUGUUGGAACGAGGACCGGUACGGCCGCCACUCGAGCGGACGAUCUACGCCUCUUAUGCUAACG [theeternabot_exclusion_KL_Trp_A_15]	482	481	552	545	350
